Measurements taken from PMC5886543, “A staphylococcal anti-sigma factor possesses a single-domain, carries different denaturant-sensitive regions and unfolds via two intermediates” (PLoS ONE, 2018).

Biological target: the molecule itself
Assay: cross-linking; rRsbW 10 uM in buffer B (20 mM phosphate pH 8.0, 100 mM NaCl, 5% glycerol), 0.1% glutaraldehyde, 2 min, 25 C; SDS-13.5% PAGE; no denaturant

B1: rRsbW, a recombinant S. aureus RsbW (enzyme, Staphylococcus aureus Newman, UniProt A6QIR1 1-159, looked up)
chain: MQSKEDFIEMRVPASAEYVSLIRLTLSGVFSRAGATYDDIEDAKIAVSEAVTNAVKHAYKENNNVGIINIYFEILEDKIKIVISDKGDSFDYETTKSKIGPYDKDENIDFLREGGLGLFLIESLMDEVTVYKESGVTISMTKYIKKEQVRNNGERVEIS
notes: RsbW of Staphylococcus aureus Newman, UniProt A6QIR1; 480 bp insert amplified from genomic DNA with primers rsbWF (begins at the ATG) and rsbWR; native RsbW 17.92 kDa, rRsbW 21.74 kDa. numbers count on: rRsbW with its 36 N-terminal extra residues (RsbW residue 1 is rRsbW residue 37); Surmised: the 36 extra residues are those that pET28a adds before its EcoRI site; also called anti-sigma factor; …
stoichiometry N: 2
